Measurements from the supplement of paper PMC9170038.

tested on: MS2 coat protein; test: apparent KD of MS2 coat protein; higher = weaker reporter binding; conditions: Eterna round: R107; input ligand: arginine 13.2 mM
How it was run: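 In 100 mM Tris-HCl pH 7.5 with 80 mM KCl and 4 mM MgCl2, and without or with constant ligand, SNAP-549-labelled MS2 coat protein was titrated in twofold steps from 0.7 or 1.5 nM to 3 µM. Per-step times went from 0.8–1.5 h down to 10–20 min. The RNA switches were transcribed on-chip from Illumina sequencing clusters, and apparent KD is the per-design median of normalised cluster binding-curve fits.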

Compared with “GGGUCGCGUUCGGCCGCCACUUGGAAACAUGAGGAUCACCCAUGUCAUAUGGUGGGACAUGUUGUAAGGACCGGGAACCGUCCUA [theeternabot_exclusion_MS2_Trp_B_11]”, “GCUGUAAGUGCAGAUACCAGCAGGUGAUAUUUCAUAUGACAUGAGGAUCACCCAUGUAACUGCCCUUGGCAGCUGCACUUACAGC [SSTHB #9]” is 5-fold higher in “apparent KD of MS2 coat protein” value: 0.0346 µM for the first, 0.172 µM for the second.

First: CUAGAUGGAAACGUCUGGACGCACAAGCGACGAGGACCGGUACGGCCGCCACUCGAAGAGUGGUGGACAUGAGGAUCACCCAUGU [Design 4 MOD]
Second: GCAUCCUAGUCGGCCGCCACUGGUACGAAUACCUUCACCCGUGUGCACAUGAGGAUCACCCAUGUCAGGACCGGGACUAGGAUGC [SSTryp B #23]
The “apparent KD of MS2 coat protein” value of the first is 3.8-fold higher: 0.0365 µM for the first, 0.00958 µM for the second.

Compared with “CCUAUCCAGUCGGCCGCCACUGAAAACAGUGGGUGAACAUGAGGAUCACCCAUGUAGGAUUUCCACAGGACCGGGACUGUAUAGG [Ex Tryptophan B 24]”, “AAUAAUAAGGCGGCCGCCACUAAACAUGAGGAUCACCCAUGUCUCGCGGGCUUGCGUUGGGAAAGUAGGACCGGGCCAAUAAUAA [Exclusion - Tryptophan B (Freestyle 8)]” is 5-fold lower in “apparent KD of MS2 coat protein” value: 0.0794 µM for the first, 0.016 µM for the second.

First: AUGUCGUUGAAUAUAGCGGCUUGGAGUGAUACCAGAAUGAUCCAAUUCCCUUGGCAGCAUUACAUGAGGAUCACCCAUGUUCCAG [SSTheo A #23]
Second: CUUAUAUAUAGAAGGAGCGACAUGAGGAUCACCCAUGUCUACCACGUCGAAAGACGCUCAUGUCAGGUAGGUCGCUAUAUAUAAG [Astros-Eli-mod3]
The “apparent KD of MS2 coat protein” value of the first is 1.8-fold lower: 0.0241 µM for the first, 0.0425 µM for the second.

“AAUACCGGUCCUCGAAGCAUGGGUGAUCAACGAGGACCGGUACGGCCGCCACUCGAUAACAUGAGGAUCACCCAUGUAAUAAUAA [|T'-M'-Trp-Ms2|_Design5]” and “UCGGGCAGAGCGGCCGCCACUGUAUGGCAUGCGGAUGAAGGAACAUGAGGAUCACCCAUGUAGAUUAGGACCGGGCUUGCGGAGA [p''pmullin]” are within 1.5-fold of each other in “apparent KD of MS2 coat protein” value: 0.0344 µM for the first, 0.0291 µM for the second.

Going from “UAUAUAGAUGGACGUCAUCUAGAUGCAGAAGGAGCGUAGGAAACUACAGGUAGGUCGCUGAGGUACAUGAGGAUCACCCAUGUAG [SSArg A #21 Slice of Pi]” to “GCAUCAUGAACGGCCGCCACUAAGGAAUGAGCGGCUCUUGCGAUACAUGAGGAUCACCCAUGUCUUAGGACCGGGUUCAUUGUCA [theeternabot_sameState_MS2_Trp_B_49]”, the “apparent KD of MS2 coat protein” value rises from 0.0227 µM to 0.069 µM (3-fold).

Going from “UGUAUUACGAAAGUAGUACAUCGUGUUCGACGAGGACCGGUACGGCCGCCACUCGGACAUGAGGAUCACCCAUGUAGCGAAAGCU [Tryptophan A 25]” to “UGUAACAUGAGGAUCACCCAUGUGCACGAUACCAGCUUCGAAAGAGGCCCUUGGCAGCGUAUGCGUAAGCUGUAUAAUAUAUAUC [#28 SameState-TheophyllineA]”, the “apparent KD of MS2 coat protein” value falls from 0.0938 µM to 0.0111 µM (8.5-fold).

Going from “UUUUUUAACUGAAGGAGCGUCACAUGAGGAUCACCCAUGUAUUAGAUGAGAAUGAUCUUGUGGCAGGUAGGUCGCAGAGGAAGGG [#30 Exclusion - Arginine B]” to “GGUCUGAAAACCGAUCAAAGAUCGGAAGAUACCAGAGGGUGAUCCCUCCCUUGGCAGCUUCACAUGAGGAUCACCCAUGUAGACC [Omei inspired #BothOrNeither]”, the “apparent KD of MS2 coat protein” value falls from 0.521 µM to 0.0293 µM (18-fold).

Going from “UGUAUGGACUGAAGGAGCGGGUUGAUAUCAUGAGGAUCACCCAUGGAAAAGGCGAAAGCCGCCCAGGUAGGUCGCAGUCCAUACU” to “UUAUGCAGGUCGGCCGCCACUACACACAUGAGGAUCACCCAUGUAGUUACUGGGUGAAGUGGCAGUAGGACCGGGACCCGCACAC [Brourdmod22]”, the “apparent KD of MS2 coat protein” value rises from 0.0251 µM to 0.226 µM (9-fold).

First: AGCGCUAUGCAUGAUACCAGCUACAUGAGGAUCACCCAUGUGCGUCAGAAAUGACUGUGUAGCCCUUGGCAGCAUAAAGCAUGUA [Exclusion - Theophylline B (Freestyle 9)]
Second: AAGGUAUCACAGACAUGGGUGUACUGUGAUACCAGCUAGGAAACUAGCCCUUGGCAGCACAUGAGGAUCACCCAUGUAAGAAUAA [(T)'-(M)'-(T1)-(T2)-(M1)-(M2)_Design4_2/19/17]
The “apparent KD of MS2 coat protein” value of the first is 1.8-fold lower: 0.0194 µM for the first, 0.034 µM for the second.

Compared with “GGGCAAGGUGCCGCCUUCGCCCACUGAGAAGGAGCGCAGGGUACUGCAGGUAGGUCGCUCAGACAUGAGGAUCACCCAUGUAGGA [Esislees]”, “GCCGCUGCCGCGGUGUGUGUGGGUGGGUGACGAGGACCGGUACGGCCGCCACUCGCGAUCGCACAUGAGGAUCACCCAUGUGUAA [Exclusion Tryp A GF20]” is 2.4-fold lower in “apparent KD of MS2 coat protein” value: 0.0324 µM for the first, 0.0133 µM for the second.

First: AUAUUAAUCGGAAGGAGCGGUACAUGAGGAUCACCCAUGUGGUAAGCUAGCAGAUCCCGUUACCAGGUAGGUCGCCGAGUUAUGA [XArg-B17]
Second: AUGUGCAAUACGGAUACCAGCCCGUGUAGAUACAUGAGGAUCACCCAUGUCAAUGUAAAUGGCCCUUGGCAGCCGUUUGGGAGGC [theeternabot_sameState_MS2_Theo_B_35]
The “apparent KD of MS2 coat protein” value of the first is 20-fold higher: 0.268 µM for the first, 0.0134 µM for the second.

Compared with “CUCCUGGGAGCGGCCGCCACUGGAGGCCUUGCGCGACAUGAGGAUCACCCAUGUUGUCCCGGCCUCAGGACCGGGUUCGCGCGAG [Same State - Tryptophan B Attempt #1]”, “GCAUGUUGGUGGUUUCUGCGAAGGCGGAAUCGAGGACCGGUACGGCCGCCACUCGGCGACAUGAGGAUCACCCAUGUGGUUAGGA [Exclusion - Tryptophan A (Freestyle 9)]” is 6.5-fold higher in “apparent KD of MS2 coat protein” value: 0.0065 µM for the first, 0.0421 µM for the second.

First: CAGCACAUGAGGAUCACCCAUGUGAGGGAUACCAGCUCAGGCGUGGGCCCUUGGCAGCUCUGUGGCUGACGAAAGUCAGCCUCUG [#18 SameState-TheophyllineA]
Second: GCACAAGAUGGAAGGAGCGCUGGUAUAAGUCACAUGAGGAUCACCCAUGUGCUCCUUGCCGAGCAGGUAGGUCGCCAUCUUGUGC [SSAB NP+V+V2 #5]
The “apparent KD of MS2 coat protein” value of the first is 1.7-fold lower: 0.0134 µM for the first, 0.0223 µM for the second.

First: AUAAUGGGUAUCGGAUUAUCAUGGAAUGAUACCAGAUACUUAGAUAUCCCUUGGCAGCAUGAGGACAUGAGGAUCACCCAUGUAU [#03 Exclusion-TheophyllineA]
Second: CACUUCAUGUGAGAUACCAGUGCCUUACAUGAGGAUCACCCAUGUCGUAAUGUGGAGAAGCACCCUUGGCAGCUCGCUUCGAGUG [Theo B SS t6]
The “apparent KD of MS2 coat protein” value of the first is 1.8-fold lower: 0.0313 µM for the first, 0.0572 µM for the second.

First: GCAUCCUAGUCGGCCGCCACUGGGUGUACCCAGUGCUGGUACAAACAUGAGGAUCACCCAUGUACCAGGACCGGGACUAGGAUGC [(Trp1)-(MT2)''-(T1)'-(MT2)'-(Ms2)-(Trp2)_Design4]
Second: UGAUAUAGGGAGCCGUAUCAGAAACCUGAAGGAGCGCCGGAAAAGGCAGGUAGGUCGCGGGAACAUGAGGAUCACCCAUGUAUUC [dancer_small]
The “apparent KD of MS2 coat protein” value of the first is 1.6-fold lower: 0.0108 µM for the first, 0.0174 µM for the second.

First: AAUGGUCGUACUGGAAUGGUGAUCCUCAAACGAGGACCGGUACGGCCGCCACUCGAUAACAUGAGGAUCACCCAUGUAAUAAUAA [|T'-M'-Trp-Ms2|_Design13b]
Second: AGCACUGUGACGGCCGCCACUACAUAACAUGGGUGGUCAGGUUCAUUACAUGAGGAUCACCCAUGUAGGACCGGGUCUCAGUGCA [Omei Trp Exc B A v11]
The “apparent KD of MS2 coat protein” value of the first is 2.1-fold higher: 0.026 µM for the first, 0.0121 µM for the second.

First: ACAUGAGGAUCACCCAUGUAAUACCGGGAAGGAGCGCGUAAGGACGCAGGUAGGUCGCUCGGCGUCCGGCCGCAAGGCCGGACGA [#1 Same State - Arginine A Attempt #12 (HarryS)]
Second: ACGGAUCGGAAACGAUCCGCGGCGCGGGUGCGAGGACCGGUACGGCCGCCACUCGGGUAACAUGAGGAUCACCCAUGUCCGAUUU [ETA NP+V+V2 #12]
The “apparent KD of MS2 coat protein” value of the first is 3.1-fold lower: 0.021 µM for the first, 0.0657 µM for the second.

First: CAAUAAGUACCGGUCCUCAGAUCCUCAUGACGAGGACCGGUACGGCCGCCACUCGAAACAUGAGGAUCACCCAUGUAAUAAUAAU [Brourdmod01]
Second: AUGCAUGUCAGAAGGAGCGUCAGUAACAUGAGGAUCACCCAUGUAACAUUGAAUUCGAUGAGACAGGUAGGUCGCUGAAUAGUAA [JR_SSArginiB_Sub019]
The “apparent KD of MS2 coat protein” value of the first is 1.7-fold lower: 0.0153 µM for the first, 0.0264 µM for the second.
